Laboratory results published in patent US20220227882A1 (TRUSTEES OF TUFTS COLLEGE, published 2022).

T1: Recombinant human ADAM8 (rHuADAM8) ectodomain protein (aa 17-497), ACRO Biosystems AD8-H5223 (human, UniProt P78325 17-497)
T1 construct: Bought protein made in HEK293 cells; The protein clips off its own prodomain (aa 17-191); also called rhADAM8; immunogen
T1 sequence: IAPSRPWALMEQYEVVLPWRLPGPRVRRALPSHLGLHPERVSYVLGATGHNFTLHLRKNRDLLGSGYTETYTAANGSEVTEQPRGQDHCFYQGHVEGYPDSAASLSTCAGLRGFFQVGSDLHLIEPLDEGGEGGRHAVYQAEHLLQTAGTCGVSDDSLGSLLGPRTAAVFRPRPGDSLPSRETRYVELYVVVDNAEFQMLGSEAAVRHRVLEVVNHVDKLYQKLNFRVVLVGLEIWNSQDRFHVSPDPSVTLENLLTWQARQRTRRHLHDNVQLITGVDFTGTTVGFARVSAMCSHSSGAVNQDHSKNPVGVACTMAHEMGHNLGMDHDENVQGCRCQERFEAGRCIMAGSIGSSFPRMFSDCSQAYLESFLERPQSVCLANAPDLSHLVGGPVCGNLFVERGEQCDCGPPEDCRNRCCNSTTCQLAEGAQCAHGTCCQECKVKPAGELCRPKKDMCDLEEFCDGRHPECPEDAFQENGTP

T2: Recombinant human ADAM9 (R&D Systems, 939-AD-020) (human, UniProt Q13443 29-697)
T2 sequence (looked up): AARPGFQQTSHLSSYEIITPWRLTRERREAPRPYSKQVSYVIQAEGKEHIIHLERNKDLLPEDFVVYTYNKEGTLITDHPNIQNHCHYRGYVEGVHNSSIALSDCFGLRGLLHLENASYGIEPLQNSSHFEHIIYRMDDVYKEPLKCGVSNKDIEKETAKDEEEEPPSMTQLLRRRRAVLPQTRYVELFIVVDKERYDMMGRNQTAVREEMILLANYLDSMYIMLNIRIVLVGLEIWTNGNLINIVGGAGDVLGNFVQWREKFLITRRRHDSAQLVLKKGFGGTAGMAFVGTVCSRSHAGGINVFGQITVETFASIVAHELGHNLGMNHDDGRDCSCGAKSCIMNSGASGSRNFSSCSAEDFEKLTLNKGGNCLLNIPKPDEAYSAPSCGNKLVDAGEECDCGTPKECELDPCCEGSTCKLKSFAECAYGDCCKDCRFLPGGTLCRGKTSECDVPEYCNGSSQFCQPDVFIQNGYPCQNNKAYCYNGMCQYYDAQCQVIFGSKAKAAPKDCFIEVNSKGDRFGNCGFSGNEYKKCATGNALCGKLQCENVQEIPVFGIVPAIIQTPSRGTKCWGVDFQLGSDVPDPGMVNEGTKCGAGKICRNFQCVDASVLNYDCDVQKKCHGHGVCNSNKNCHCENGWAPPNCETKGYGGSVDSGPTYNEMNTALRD


Assays:
[1] = target: T1, Recombinant human ADAM8 (rHuADAM8) …; test: Biacore SPR, ADP captured by anti-mouse Fc, rHuADAM8 as analyte
Procedure: For Biacore assays, each ADP was used as the ligand in a multiple cycle kinetics method performed on a Biacore™ T200 surface plasmon resonance system (GE Healthcare Life Sciences) machine. ADP proteins were captured using anti-mouse Fc IgG attached to a dextran matrix, and rHuADAM8 (Acro Biosystems, AD8-H5223) added as the analyte at concentrations ranging from 3.75 nM to 200 nM. HBS-EP+ (10 mM HEPES, 0.15 M NaCl, 3 mM EDTA, 0.05% Surfactant P20) running buffer was passed at a flow rate of 30 μl/min and antigen injected at 30 μl/min. The association and dissociation phases were carried out for 180 s and 600 s, respectively. Surface regeneration was performed for 30 s at 30 μl/min of Glycine pH 1.5. Values for association rate constant (kₐ), dissociation rate constant (kd) and equilibrium dissociation constant (KD) were calculated through the Biacore™ T200 Software.

[2] = target: T1, Recombinant human ADAM8 (rHuADAM8) …; test: adhesion of α9β1 integrin CHO cells to coated rHuADAM8, antibody 20 µg/ml, vs isotype control IgG; mean ± S.D., n=3
Source text: To mimic this process and evaluate both the presence of an active DI domain on rHuADAM8 and the ability of ADPs to inhibit this activity in vitro, adhesion of Chinese Hamster Ovary (CHO) cells expressing α9β1 integrin vs the negative control αvβ3 integrin was used (Rao et al., J Bone Miner Res, 21(10): 1657-1665, 2006). CHO cells were maintained in DMEM high glucose (Invitrogen) supplemented with 10% FBS, 1% penicillin/streptomycin (Hyclone), L-glutamine (Gibco), non-essential amino acids (Gibco) and 100 μg/ml G418 (Teknova). Adhesion of CHO cells expressing α9β1 integrin or αvβ3 integrin to plates coated with rHuADAM8 (Acro Biosystems, AD8-H5223) was assessed as follows. Briefly, 96-well plates were coated overnight with 1.5 μg of rHuADAM8 per well, blocked with 1% BSA and washed with PBS.
To assess the ability of ADPs to inhibit DI activity, 96-well plates coated with rHuADAM8 as above were pre-treated in duplicate for 2 hours with either PBS, 20 μg/ml of dialyzed or protein A purified ADP, MAB1031 or control isotype-matched IgGs. Unattached cells were washed off and attached cells counted as above.

[3] = target: T2, Recombinant human ADAM9 (R&D Systems, …); test: ELISA, coated recombinant ADAM9

Binder | koff [1] | kon [1] | % inhibition of α9β1 integrin binding to ADAM8 [2] | OD 450nm [3] | binding result [3]
ADP2 (antibody, V domains shown, also called mADP2; mouse ADP2) VH: EVKLVESGGGLVQPGGSLSLSCAASGFSFPDYYMSWVRQPPGKALEWLGFIRDSANGYTTEYIASVKGRFTFSRDNSQSILYLQMNALRAEDSATYYCARYSRYYGMDYWGQGTSVTVSS VL: SIVMTQTPKILLVSAGDRVTITCKASQTVNYDVAWYQQKPGQSPKPVIYFASNRYTGVPDRFTGSGFGTDFTFTISTVQAEDLAVYFCQQDYSAPWTFGGGTKLEIK | 0.000299 s⁻¹ | 89500 M⁻¹ s⁻¹ | 72 % inhibition | 0.07 OD450nm | no binding (tested: 1 µg/ml)
ADP3 (antibody, IgG1, V domains shown) VH: EVKLEESGGGLVQPGGSMKLSCAASGFTFSDAWMDWVRQSPEKGLEWVAEIRGKVNNLATYYVESVKGRFTISRDDSKSSVYLQMNSLRAEDTGIYYCLGRYDATYAMDYWGQGTSVTVSS VL: DVVMTQTPLSLPVSLGDQASISCRSSQSLVHSDGNTYLHWYLQKPGQSPKLLIYKLSNRFSGVPDRFSGSGSGTDFTLKISRVEAEDLGVYFCSQSTHVPWTFGGGTKLEIK | 0.000634 s⁻¹ | 34700 M⁻¹ s⁻¹ | 69.3 % inhibition | 0.15 OD450nm | 
ADP13 (antibody, IgG1, V domains shown, also called mADP13; mouse ADP13) VH: EVQLQQSGPEMVKPGTSVKISCKASGYTFTDYYINWVKQSHGKSLEWIGDISPNIGGATYNPKFKGKAILTVDKSARTAYMELRSLTSEDSAVYCCTRGGSSYPYFYAMDYWGQGTSVTVSS VL: DIVMSQSPSSLAVSVGEKVTMSCKSSQSLLYSSNQKKYLAWYQQKPGQSPKLLIYWASTRESGVPDRFTGSGSGTDFTLTISSVKAEDLAVYYCQQFYSYPYTFGGGTKLEINR | 4.6e-05 s⁻¹ | 35400 M⁻¹ s⁻¹ | 78.5 % inhibition | 0.12 OD450nm | no binding (tested: 1 µg/ml)
